Test systems include R.Eco29kI R86A; R.Eco29kI Y49A; R.Eco29kI wt.
Assay in all cases: fluorescence polarization
Holding throughout (conditions): 10 mM Tris-HCl pH 7.5, 50 mM NaCl, no Mg2+, room temperature; FP: 1 nM duplex, 0.1 mg/mL BSA, 20 min; EMSA: 250 nM enzyme, 15 min, 6% gel
(In general: Fluorescence polarisation rises when a labelled molecule tumbles more slowly, as on binding a larger partner.)

Where “and” joins values, the source holds several entries; their conditions need not be identical. Equal entries are not always repeated.

By Kd is commonly meant a measure of binding affinity in units of concentration. Higher therefore signals weaker binding. For the sequence “TTTTGGTACCGCGGCCGCAAGCTT (double strand) [24-bp duplex with Eco29kI site]”, the equilibrium dissociation constant (Kd) in the data set with R.Eco29kI R86A is 21 nM and 344 nM^n; in the data set on R.Eco29kI Y49A, 49 nM and 529 nM^n; in the data set with R.Eco29kI wt, 16 nM and 299 nM^n.

For the origin of these results see paper PMC1952068.
